Test results published in patent US20150166647A1 (VLST, published 2015).

How the values were obtained:
human RANTES/CCL5 [1] = molecular target: T1, human RANTES/CCL5 (human, UniProt P13501 24-91); experiment: cell-based or functional assay
T1 sequence: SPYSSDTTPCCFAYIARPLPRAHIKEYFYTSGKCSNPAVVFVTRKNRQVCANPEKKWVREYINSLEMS

human MIP-1α/CCL3 [2] = molecular target: T2, human MIP-1α/CCL3 (human, UniProt P10147 24-92); experiment: cell-based or functional assay
T2 sequence: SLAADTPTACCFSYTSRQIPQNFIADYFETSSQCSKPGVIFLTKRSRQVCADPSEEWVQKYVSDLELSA

mouse MIP-1α/CCL3 [3] = molecular target: T3, mouse MIP-1α/CCL3 (mouse, UniProt P10855 24-92); experiment: MSD electrochemiluminescence, chemokine coated at 1 µg/mL
T3 construct: also called muMIP-1α
T3 sequence: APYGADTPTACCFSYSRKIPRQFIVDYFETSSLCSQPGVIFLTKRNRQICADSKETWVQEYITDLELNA

mouse RANTES/CCL5 = molecular target: T4, mouse RANTES/CCL5 (mouse, UniProt P30882 24-91); experiment: as above
T4 construct: also called muRANTES

mouse MIP-1β/CCL4 [4] = molecular target: T5, mouse MIP-1β/CCL4 (mouse, UniProt P14097 24-92); experiment: as above
T5 construct: also called muMIP-1β
T5 sequence: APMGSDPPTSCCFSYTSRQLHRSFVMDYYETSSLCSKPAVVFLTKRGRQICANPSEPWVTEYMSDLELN

human MIP-1α/CCL3 [5] = molecular target: T2, human MIP-1α/CCL3; experiment: ELISA, hybridoma fusion-well supernatant on coated MIP-1α; background approx. 0.150
ELC = molecular target: T6, ELC; experiment: MSD electrochemiluminescence assay; chemokine coated at 1 µg/mL, 3C12F at 3 µg/mL; background = BSA
T6 construct: also called ELC/MIP-3β/CCL19; CCL19
T6 chemokine: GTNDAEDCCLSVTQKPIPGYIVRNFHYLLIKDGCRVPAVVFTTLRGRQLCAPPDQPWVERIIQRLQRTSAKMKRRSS

I-309 [6] = molecular target: T7, I-309; experiment: as above
T7 construct: also called I-309/CCL1; CCL1
T7 chemokine: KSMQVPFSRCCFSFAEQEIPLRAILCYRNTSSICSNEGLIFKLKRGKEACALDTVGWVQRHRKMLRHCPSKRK

human HCC-1/CCL14/CCL14a [7] = molecular target: T8, human HCC-1/CCL14/CCL14a (human, UniProt Q16627 28-93); experiment: as above
T8 sequence: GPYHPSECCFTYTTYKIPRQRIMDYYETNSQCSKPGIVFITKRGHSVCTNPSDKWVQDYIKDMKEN

human PARC/CCL18 = molecular target: T9, human PARC/CCL18 (human, UniProt P55774 21-89); experiment: as above
T9 sequence: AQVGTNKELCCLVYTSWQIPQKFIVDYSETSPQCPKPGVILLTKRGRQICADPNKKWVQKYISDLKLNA

MCP-3 [8] = molecular target: T10, MCP-3; experiment: as above
T10 construct: also called MCP-3/CCL7; CCL7

human HCC-2/MIP-1δ/CCL15 = molecular target: T11, human HCC-2/MIP-1δ/CCL15 (human, UniProt Q16663 46-113); experiment: as above
T11 sequence: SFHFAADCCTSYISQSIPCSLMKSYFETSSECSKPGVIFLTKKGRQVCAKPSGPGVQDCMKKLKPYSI

SDF [9] = molecular target: T12, SDF; experiment: as above
T12 construct: also called SDF-1/CXCL12; CXCL12

human MPIF-1/CCL23 = molecular target: T13, human MPIF-1/CCL23 (human, UniProt P55773 46-120); experiment: as above
T13 sequence: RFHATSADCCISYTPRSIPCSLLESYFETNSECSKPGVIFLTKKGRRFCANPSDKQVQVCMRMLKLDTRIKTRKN

human MCP-1/CCL2 [10] = molecular target: T14, human MCP-1/CCL2 (human, UniProt P13500 24-99); experiment: as above
T14 construct: also called Biotin-MCP1

MCP-4 [11] = molecular target: T15, MCP-4; experiment: as above
T15 construct: also called MCP-4/CCL13; CCL13

MDC [12] = molecular target: T16, MDC; experiment: as above
T16 construct: also called MDC/CCL22; CCL22
T16 chemokine: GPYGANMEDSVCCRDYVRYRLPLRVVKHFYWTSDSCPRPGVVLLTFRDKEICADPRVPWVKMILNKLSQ

HCC-4 [13] = molecular target: T17, HCC-4; experiment: as above
T17 construct: also called HCC-4/CCL16; CCL16
T17 chemokine: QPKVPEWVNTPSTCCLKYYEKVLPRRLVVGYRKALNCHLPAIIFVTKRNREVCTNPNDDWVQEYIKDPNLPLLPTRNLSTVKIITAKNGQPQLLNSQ

IL-8 [14] = molecular target: T18, IL-8; experiment: as above
T18 construct: also called IL-8/CXCL8; CXCL8

human RANTES/CCL5 [15] = molecular target: T1, human RANTES/CCL5; experiment: ELISA, hybridoma fusion-well supernatant on biotinylated chemokine on streptavidin plate; background approx. 0.150
human MIP-1β/CCL4 = molecular target: T19, human MIP-1β/CCL4 (human, UniProt Q8NHW4 24-92); experiment: as above
T19 construct: also called Biotin-MIP-1β
T19 chain: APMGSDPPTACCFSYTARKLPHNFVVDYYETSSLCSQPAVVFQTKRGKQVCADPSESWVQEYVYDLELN

human MCP-1/CCL2 [16] = molecular target: T14, human MCP-1/CCL2; experiment: as above
human MIP-1α/CCL3 [17] = molecular target: T2, human MIP-1α/CCL3; experiment: BIAcore (SPR)
I-309 [18] = molecular target: T7, I-309; experiment: MSD electrochemiluminescence assay; chemokine coated at 1 µg/mL, 7D1G at 3 µg/mL; background = BSA
human HCC-1/CCL14/CCL14a [19] = molecular target: T8, human HCC-1/CCL14/CCL14a; experiment: as above
MCP-3 [20] = molecular target: T10, MCP-3; experiment: as above
Fractalkine = molecular target: T20, Fractalkine; experiment: as above
T20 construct: also called Fractalkine/CX3CL1; CX3CL1
T20 chemokine: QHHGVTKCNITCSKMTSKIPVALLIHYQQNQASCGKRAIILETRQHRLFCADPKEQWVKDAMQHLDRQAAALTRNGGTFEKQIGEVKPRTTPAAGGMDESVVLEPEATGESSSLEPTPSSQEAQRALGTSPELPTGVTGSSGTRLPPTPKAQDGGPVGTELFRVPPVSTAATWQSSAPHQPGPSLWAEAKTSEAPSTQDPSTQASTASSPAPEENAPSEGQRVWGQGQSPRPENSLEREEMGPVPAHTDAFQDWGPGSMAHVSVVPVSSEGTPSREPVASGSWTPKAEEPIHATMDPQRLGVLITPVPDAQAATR

SDF [21] = molecular target: T12, SDF; experiment: as above
human MCP-1/CCL2 [22] = molecular target: T14, human MCP-1/CCL2; experiment: as above
MCP-4 [23] = molecular target: T15, MCP-4; experiment: as above
Eotaxin = molecular target: T21, Eotaxin; experiment: as above
T21 construct: also called Eotaxin/CCL11; CCL11

MDC [24] = molecular target: T16, MDC; experiment: as above
HCC-4 [25] = molecular target: T17, HCC-4; experiment: as above
MCP-2 = molecular target: T22, MCP-2; experiment: as above
T22 construct: also called MCP-2/CCL8; CCL8
T22 chemokine: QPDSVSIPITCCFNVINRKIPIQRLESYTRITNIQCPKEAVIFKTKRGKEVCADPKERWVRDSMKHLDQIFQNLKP

IL-8 [26] = molecular target: T18, IL-8; experiment: as above
mouse MIP-1α/CCL3 [27] = molecular target: T3, mouse MIP-1α/CCL3; experiment: Binding (MSD)
mouse MIP-1β/CCL4 [28] = molecular target: T5, mouse MIP-1β/CCL4; experiment: Binding (MSD)

T14 sequence (P13500 24-99 limits assumed): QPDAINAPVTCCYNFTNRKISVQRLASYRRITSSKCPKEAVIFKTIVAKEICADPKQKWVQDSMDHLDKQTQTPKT
T12 sequence (chemokine, as listed by the source): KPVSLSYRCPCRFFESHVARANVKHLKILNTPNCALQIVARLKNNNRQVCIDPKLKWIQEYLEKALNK
T10 sequence (chemokine, as listed by the source): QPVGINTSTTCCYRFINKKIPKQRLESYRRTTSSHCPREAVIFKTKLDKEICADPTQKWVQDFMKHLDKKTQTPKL
T15 sequence (chemokine, as listed by the source): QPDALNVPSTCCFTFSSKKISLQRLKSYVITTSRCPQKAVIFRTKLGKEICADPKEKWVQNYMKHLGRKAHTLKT
T4 sequence (P30882 24-91 limits assumed): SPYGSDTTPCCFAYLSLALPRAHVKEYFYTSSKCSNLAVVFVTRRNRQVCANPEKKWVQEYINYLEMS
T18 sequence (chemokine, as listed by the source): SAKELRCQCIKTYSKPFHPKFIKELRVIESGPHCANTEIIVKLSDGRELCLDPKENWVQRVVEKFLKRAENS
T21 sequence (chemokine, as listed by the source): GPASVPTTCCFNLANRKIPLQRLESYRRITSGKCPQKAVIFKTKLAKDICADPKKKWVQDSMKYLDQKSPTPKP

B1: monoclonal antibody 3C12F (antibody, V domains shown)
VH: EVQLQQSGAELVKPGASVKLSCTASGFNIKDTYIHWVKQRPEQGLEWIGRIDPANGNTQYDPKFQGKATITADTSSNTAYLQLTSLTSEDTAVYYCARRWDYDYAMDYWGQGTSVTVSS
VL: DIQMTQSPASLSASVGETVTITCRGSGNIHNYLAWYQQKQGKSPQLLVYNAKTLADGVPSRFSGSGSGTQYSLKINSLQPEDFGSYYCQHFWSTPYTFGGGTKLEIK
notes: also called MAb 3C12F
**Q.** For B1, which “IC50 of inhibition of chemotaxis (5 ng/mL chemokine)” value (human RANTES/CCL5 [1]) is on record?
**A.** 3 to 5 µg/mL

**Q.** What about the “IC50 of inhibition of chemotaxis (5 ng/mL chemokine)” value (human MIP-1α/CCL3 [2]) of the same binder?
**A.** 3 to 5 µg/mL

**Q.** Does B1 bind (mouse MIP-1α/CCL3 [3])?
**A.** no binding (tested: 3 µg/mL)

**Q.** Does B1 bind (mouse RANTES/CCL5)?
**A.** no binding (tested: 3 µg/mL)

**Q.** Does B1 bind (mouse MIP-1β/CCL4 [4])?
**A.** no binding (tested: 3 µg/mL)

**Q.** What about the ELISA signal (human MIP-1α/CCL3 [5]) of the same binder?
**A.** 1.84

**Q.** Does B1 bind (ELC)?
**A.** no binding (tested: 3 µg/mL)

**Q.** Does B1 bind (I-309 [6])?
**A.** no binding (tested: 3 µg/mL)

**Q.** Does B1 bind (human HCC-1/CCL14/CCL14a [7])?
**A.** no binding (tested: 3 µg/mL)

**Q.** Does B1 bind (human PARC/CCL18)?
**A.** no binding (tested: 3 µg/mL)

**Q.** Does B1 bind (MCP-3 [8])?
**A.** no binding (tested: 3 µg/mL)

**Q.** Does B1 bind (human HCC-2/MIP-1δ/CCL15)?
**A.** binds

**Q.** Does B1 bind (SDF [9])?
**A.** no binding (tested: 3 µg/mL)

**Q.** Does B1 bind (human MPIF-1/CCL23)?
**A.** binds

**Q.** Does B1 bind (human MCP-1/CCL2 [10])?
**A.** no binding (tested: 3 µg/mL)

**Q.** Does B1 bind (MCP-4 [11])?
**A.** no binding (tested: 3 µg/mL)

**Q.** Does B1 bind (MDC [12])?
**A.** no binding (tested: 3 µg/mL)

**Q.** Does B1 bind (HCC-4 [13])?
**A.** no binding (tested: 3 µg/mL)

**Q.** Does B1 bind (IL-8 [14])?
**A.** no binding (tested: 3 µg/mL)

**Q.** And the ELISA signal (human RANTES/CCL5 [15])?
**A.** 2.61

**Q.** And the ELISA signal (human MIP-1β/CCL4)?
**A.** 1.92

**Q.** And the ELISA signal (human MCP-1/CCL2 [16])?
**A.** 0.189

**Q.** What about the Kd (human MIP-1α/CCL3 [17]) of the same binder?
**A.** 49 nM

B2: monoclonal antibody 7D1G (antibody, V domains shown)
VH: QVQLQQPGAELVKPGASVKMSCKASGYTFTSYNIHWVKQTPGQGLEWIGAVSPRNGDTSYNQRFKGKATLTADISSSTAYMQLSSLTSEDSAVYYCARGYGYDYWGQGTTLTVSS
VL: DVVLTQSPATLSVTPGDRVSLSCRASQSVSKYLHWYQQKSHESPRLLIKYVSQSISGIPSRFSGSGSGTDFTLSINSVETEDLGMYFCQQSNSWPHTFGAGTKLELK
notes: also called MAb 7D1G
**Q.** Does B2 bind (I-309 [18])?
**A.** no binding (tested: 3 µg/mL)

**Q.** Does B2 bind (human HCC-1/CCL14/CCL14a [19])?
**A.** binds

**Q.** Does B2 bind (MCP-3 [20])?
**A.** no binding (tested: 3 µg/mL)

**Q.** Does B2 bind (Fractalkine)?
**A.** no binding (tested: 3 µg/mL)

**Q.** Does B2 bind (SDF [21])?
**A.** no binding (tested: 3 µg/mL)

**Q.** Does B2 bind (human MCP-1/CCL2 [22])?
**A.** no binding (tested: 3 µg/mL)

**Q.** Does B2 bind (MCP-4 [23])?
**A.** no binding (tested: 3 µg/mL)

**Q.** Does B2 bind (Eotaxin)?
**A.** no binding (tested: 3 µg/mL)

**Q.** Does B2 bind (MDC [24])?
**A.** no binding (tested: 3 µg/mL)

**Q.** Does B2 bind (HCC-4 [25])?
**A.** no binding (tested: 3 µg/mL)

**Q.** Does B2 bind (MCP-2)?
**A.** no binding (tested: 3 µg/mL)

**Q.** Does B2 bind (IL-8 [26])?
**A.** no binding (tested: 3 µg/mL)

**Q.** Does B2 bind (mouse MIP-1α/CCL3 [27])?
**A.** binds

**Q.** Does B2 bind (mouse MIP-1β/CCL4 [28])?
**A.** binds

**Q.** Does B2 bind (mouse RANTES/CCL5)?
**A.** no binding (tested: 3 µg/mL)

**Q.** And the ELISA signal (human MIP-1α/CCL3 [5])?
**A.** 1.7

**Q.** What about the ELISA signal (human RANTES/CCL5 [15]) of the same binder?
**A.** 0.145

**Q.** And the ELISA signal (human MIP-1β/CCL4)?
**A.** 2.57

**Q.** And the ELISA signal (human MCP-1/CCL2 [16])?
**A.** 0.22
